The values that follow come from PMC3074572 (2011).

The target in the assay is TGFβ1 (Homo sapiens, UniProt P01137).
TGFβ1, sequence (P01137 279-390): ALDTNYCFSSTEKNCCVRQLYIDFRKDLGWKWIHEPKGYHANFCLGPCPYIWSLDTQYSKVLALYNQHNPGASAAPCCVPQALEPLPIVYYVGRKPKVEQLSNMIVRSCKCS

B1: KRIWFIPRSSWY peptide (peptide)
chain: KRIWFIPRSSWY
As usually defined, the Kd is a measure of binding affinity in units of concentration. Low readings indicate tighter binding, high ones weaker binding. In turn, B1 gave a dissociation constant (Kd) of 10.4 nM.
